From PMC5665954, “Coupling fission and exit of RAB6 vesicles at Golgi hotspots through kinesin-myosin interactions” (Nature Communications, 2017) come the findings set out here.

Data set [1] has as its target GST-Myosin II-1148-1652 (human) (UniProt P35579). The data set is described as follows: ELISA; solid-phase assay: 96-well plates coated with 10 µg GST-GFP, GST-Myosin II-1148-1652 or GST-RAB6A:GTP; 0-40 µg 6xHis-RAB6:GTP or 6xHis-KIF20A-529-665 added; 20 mM Hepes pH 7.5, 100 mM NaCl, 5 mM MgCl2; detection with anti-6xHis antibodies, absorbance at 450 nm. For orientation: An ELISA detects its analyte on a solid surface through an enzyme-linked reagent.

Data set [2] deals with the molecule itself. The data set is described as follows: crystal structure; complex of RAB6A-Q72L-8-195 and KIF20A-603-665 at 10 mg/ml; 100 mM Hepes pH 7.4, 200 mM ammonium sulfate, 24% PEG 8K, 2% isopropanol, 17 °C; 2 Å.

In data set [1], “6xHis-RAB6:GTP (from UniProt P20340 1-208) (natural protein)” displayed a fold lower affinity than RAB6 and Myosin II-1148-1652 have for KIF20A-RBD-529-665 of 5 fold.

B1: KIF20A fragment (603-665) (domain or fragment, UniProt P97329 603-665, looked up)
chain: EQWCSERLDNQKELMEELYEEKLKILKESLTTFYQEQIQERDEKIEELETLLQEAKQQPAAQQ
notes: Parallel right-handed coiled-coil dimer with an inter-helical cysteine bridge; also called KIF20A-RBD; source: E. coli BL21 (DE3), co-expressed with m20, purified (Glutathione Sepharose 4B, rTEV cleavage, Ni-NTA); not shown: GST, N-terminal, cleaved
What is called stoichiometry N is a count of units in the complex or per binding partner. As for B1, the “stoichiometry N” value in data set [2] came to 2.
